Data on twelve molecules can be found in patent publication US20090099087A1 (STC UNM, published 2009).

Residue numbers refer to the chain shown, from its start. Numbers in names are those of the source.

B1: wild-type first Kunitz-type domain (KD1) of human TFPI-2, His-tagged, E. coli (other)
chain: DAAQEPTGNNAEICLLPLDYGPCRALLLRYYYDRYTQSCRQFLYGGCEGNANNFYTWEACDDACWRIEKVPKV
notes: the monomer was purified; also called wild-type KD1; TFPI-2 KD1; not shown: N-terminal decahistidine-tag leader and enterokinase cleavage site from pET19b
B2: L26Q KD1 (other)
chain: B1 chain with L26Q
notes: Point mutant of His-tagged KD1, KD1 numbering; also called L26Q (L17Q); not shown: N-terminal decahistidine-tag leader and enterokinase cleavage site from pET19b
B3: R29D KD1 (other)
chain: B1 chain with R29D
notes: Point mutant of His-tagged KD1, KD1 numbering; also called R29D (R20D); not shown: N-terminal decahistidine-tag leader and enterokinase cleavage site from pET19b
B4: D19A KD1 (other)
chain: B1 chain with D19A
notes: Point mutant of His-tagged KD1, KD1 numbering; also called D19A (D10A); not shown: N-terminal decahistidine-tag leader and enterokinase cleavage site from pET19b
B5: R29A KD1 (other)
chain: B1 chain with R29A
notes: Point mutant of His-tagged KD1, KD1 numbering; also called R29A (R20A); not shown: N-terminal decahistidine-tag leader and enterokinase cleavage site from pET19b
B6: G21D KD1 (other)
chain: B1 chain with G21D
notes: Point mutant of His-tagged KD1, KD1 numbering; also called G21D (G12D); not shown: N-terminal decahistidine-tag leader and enterokinase cleavage site from pET19b
B7: R29K KD1 (other)
chain: B1 chain with R29K
notes: Point mutant of His-tagged KD1, KD1 numbering; also called R29K (R20K); not shown: N-terminal decahistidine-tag leader and enterokinase cleavage site from pET19b
B8: R24Q KD1 (other)
chain: B1 chain with R24Q
notes: Point mutant of His-tagged KD1, KD1 numbering; also called R24Q (R15Q); not shown: N-terminal decahistidine-tag leader and enterokinase cleavage site from pET19b
B9: F42A KD1 (other)
chain: B1 chain with F42A
notes: Point mutant of His-tagged KD1, KD1 numbering; also called F42A (F33A); not shown: N-terminal decahistidine-tag leader and enterokinase cleavage site from pET19b
B10: Y20A KD1 (other)
chain: B1 chain with Y20A
notes: Point mutant of His-tagged KD1, KD1 numbering; also called Y20A (Y11A); not shown: N-terminal decahistidine-tag leader and enterokinase cleavage site from pET19b
B11: R24K KD1 (other)
chain: B1 chain with R24K
notes: also called R24K (R15K); R24K KD1 polypeptide; not shown: N-terminal extension from the expression vector
B12: recombinant human tissue factor pathway inhibitor-2 (TFPI-2), full-length (other)
chain: DAAQEPTGNNAEICLLPLDYGPCRALLLRYYYDRYTQSCRQFLYGGCEGNANNFYTWEACDDACWRIEKVPKVCRLQVSVDDQCEGSTEKYFFNLSSMTCEKFFSGGCHRNRIENRFPDEATCMGFCAPKKIPSFCYSPKDEGLCSANVTRYYFNPRYRTCDAFTYTGCGGNDNNFVSREDCKRACAKALKKKKKMPKLRFASRIRKIRKKQF
notes: Eukaryotically expressed recombinant full-length protein, described as a 213 amino acid polypeptide and prepared by a published method (Sprecher et al.); also called full-length TFPI-2; intact TFPI-2

T1 sequence (P08709 61-466 limits assumed, chain 1 of 2): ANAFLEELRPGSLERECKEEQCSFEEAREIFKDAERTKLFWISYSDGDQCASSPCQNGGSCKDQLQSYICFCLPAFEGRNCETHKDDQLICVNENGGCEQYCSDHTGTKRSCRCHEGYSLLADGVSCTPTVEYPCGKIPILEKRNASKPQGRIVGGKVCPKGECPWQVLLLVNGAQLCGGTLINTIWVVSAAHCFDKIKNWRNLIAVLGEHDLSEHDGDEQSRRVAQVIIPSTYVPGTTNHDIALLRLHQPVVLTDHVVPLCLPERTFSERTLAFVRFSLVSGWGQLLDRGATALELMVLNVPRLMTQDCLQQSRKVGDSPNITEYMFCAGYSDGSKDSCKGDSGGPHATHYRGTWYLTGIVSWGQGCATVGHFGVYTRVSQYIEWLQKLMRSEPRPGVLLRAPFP
T1 sequence (P13726 33-251 limits assumed, chain 2 of 2): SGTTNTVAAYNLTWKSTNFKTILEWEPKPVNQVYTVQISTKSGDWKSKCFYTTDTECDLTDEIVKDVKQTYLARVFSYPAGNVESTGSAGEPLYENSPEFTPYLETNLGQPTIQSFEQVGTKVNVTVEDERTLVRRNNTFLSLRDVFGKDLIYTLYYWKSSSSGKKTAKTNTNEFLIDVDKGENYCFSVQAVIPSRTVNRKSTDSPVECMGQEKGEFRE
T2 sequence (P00747 97-810 limits assumed): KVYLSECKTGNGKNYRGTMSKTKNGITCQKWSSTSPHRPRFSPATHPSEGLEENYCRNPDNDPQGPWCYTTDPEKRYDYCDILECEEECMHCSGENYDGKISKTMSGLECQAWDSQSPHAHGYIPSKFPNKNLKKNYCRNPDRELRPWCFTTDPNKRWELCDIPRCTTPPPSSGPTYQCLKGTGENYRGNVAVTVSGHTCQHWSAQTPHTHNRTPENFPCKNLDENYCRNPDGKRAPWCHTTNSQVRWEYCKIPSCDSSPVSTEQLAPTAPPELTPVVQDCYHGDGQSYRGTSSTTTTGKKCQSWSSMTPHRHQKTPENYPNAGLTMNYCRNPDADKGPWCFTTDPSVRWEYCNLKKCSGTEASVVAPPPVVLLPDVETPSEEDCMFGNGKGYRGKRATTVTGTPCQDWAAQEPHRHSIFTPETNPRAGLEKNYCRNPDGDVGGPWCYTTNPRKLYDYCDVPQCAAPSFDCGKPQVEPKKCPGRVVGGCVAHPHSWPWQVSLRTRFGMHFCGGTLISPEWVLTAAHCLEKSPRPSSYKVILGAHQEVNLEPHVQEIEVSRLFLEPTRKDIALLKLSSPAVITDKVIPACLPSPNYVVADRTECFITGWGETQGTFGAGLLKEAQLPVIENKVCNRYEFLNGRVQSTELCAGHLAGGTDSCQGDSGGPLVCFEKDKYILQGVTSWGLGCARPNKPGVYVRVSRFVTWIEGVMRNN

One assay has as its target T1, factor VIIa-tissue factor complex (human recombinant factor VIIa with recombinant soluble human tissue factor) (human, UniProt P08709 61-466; P13726 33-251, limits assumed).
T1 construct: The complex was formed from 50 nM factor VIIa and 100 nM soluble tissue factor in 5 mM CaCl2; Factor VIIa is itself a two-chain enzyme; also called FVIIa-TF; VIIa-TF
The assay can be described thus: chromogenic (S-2288) amidolytic inhibition assay, FVIIa 50 nM / soluble TF 100 nM. The protocol: (§1) Recombinant soluble human tissue factor (100 nM) and factor VIIa (50 nM) were incubated in a TBS-BSA buffer/5 mM CaCl₂ for 15 minutes at 37° C. Following this incubation, aliquots (100 μl) were dispensed into a 96-well microtitration plate and treated with serial dilutions of inhibitors dissolved in TBS buffer. After 15 minutes of incubation, 30 μl of S-2288 (final concentration, 1 mM) was added to each well and the absorbance at 405 nm was determined as described earlier.
As to B1, the Ki was 1.64 µM.

On to B2, for which the Ki was determined as 54 µM.

On to B3, for which the Ki was determined as 44.6 µM.

For B4, the Ki was 1.96 µM.

As for B5, the Ki came to 3.93 µM.

Turning to B6, the Ki was found to be 26 µM.

Consider B7, for which the Ki turned out to be 1.11 µM.

On to B8, for which the Ki was determined as 55.7 µM.

Take B9: the Ki came out at 61.2 µM.

As to B10, the Ki was determined as 1.35 µM.

As to B11, the Ki worked out at 8.55 µM.

With B12, the Ki worked out at 1.91 µM.

For a further assay, the target named is T2, human plasmin (human, UniProt P00747 97-810, limits assumed). The assay can be described thus: chromogenic amidolytic inhibition assay, plasmin; reference BPTI. The protocol:
(§2) Trypsin and plasmin inhibition assays were performed as described elsewhere (Petersen et al., Biochemistry, 35:266-272, 1996). Briefly, trypsin and plasmin were incubated with various concentrations of inhibitor preparations for 15 minutes at 37° C. in a 96-well microtitration plate. The chromogenic substrate S-2251 was then added and residual amidolytic activity was measured in a Molecular Devices UVₘₐₓ kinetic microplate reader.
Consider B1, for which the “fold higher Ki than BPTI” value was about 3 fold.

The target in another assay is T2, human plasmin. Put plainly: chromogenic amidolytic inhibition assay, plasmin; reference full-length TFPI-2. The protocol:
as §2
For B1, the “fold more potent than full-length TFPI-2” value is 3 fold.

The target in another assay is T3, porcine trypsin (porcine, UniProt P00761 9-231). Put plainly: chromogenic (S-2251) amidolytic inhibition assay, trypsin 50 nM. The protocol: as §2
T3 sequence (P00761 9-231 limits assumed): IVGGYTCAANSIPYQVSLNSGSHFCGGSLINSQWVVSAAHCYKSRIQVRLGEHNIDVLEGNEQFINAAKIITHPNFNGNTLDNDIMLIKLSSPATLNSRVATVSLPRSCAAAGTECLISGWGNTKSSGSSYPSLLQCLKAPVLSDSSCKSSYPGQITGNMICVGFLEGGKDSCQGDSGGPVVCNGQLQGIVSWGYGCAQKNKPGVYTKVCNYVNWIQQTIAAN
In turn, B1 displayed a Ki of 0.013 µM.

B2 returned a Ki of 0.162 µM.

In the case of B3, affinity was put at a Ki of 4.6 µM.

As to B4, the affinity corresponds to a Ki of 0.015 µM.

As to B5, the Ki came out at 0.052 µM.

On to B6, for which the affinity corresponds to a Ki of 0.042 µM.

B7: the Ki was found to be 0.02 µM.

Molecule B8 registered a Ki of 0.296 µM.

Molecule B9 yielded a Ki of 0.155 µM.

B10 displayed a Ki of 0.008 µM.

The molecule B11 had a Ki of 0.008 µM.

B12 registered a Ki of 0.021 µM.

Another assay deals with T2, human plasmin. Put plainly: chromogenic amidolytic inhibition assay; reference wild-type KD1. The protocol:
as §2, §1
With B2, the “fold reduction in inhibitory potency (against wild-type KD1)” value (shortened to “fold reduction in inhibitory potency”) is at least 10 fold.

Another assay addresses T1, factor VIIa-tissue factor complex …. Described as above. The protocol:
as §2, §1
Take B2: the “fold reduction in inhibitory potency” value was at least 10 fold.

The next assay concerns the target T3, porcine trypsin. The assay is described as above. The protocol: as §2, §1
As for B2, the “fold reduction in inhibitory potency” value was at least 10 fold.

Another assay concerns the target T3, porcine trypsin. Put plainly: chromogenic amidolytic inhibition assay, trypsin; reference full-length TFPI-2. The protocol: as §2
Regarding B1, the “fold higher inhibitory activity than full-length TFPI-2” value is about 2 fold.

In another assay the target is T1, factor VIIa-tissue factor complex …. The assay can be described thus: chromogenic amidolytic inhibition assay, FVIIa-TF; reference wild-type KD1. The protocol:
as §1
As for B11, the “fold reduction of inhibitory activity (against wild-type KD1)” value is about 5 fold.

For the next assay, the target named is T2, human plasmin. Put plainly: chromogenic (S-2251) amidolytic inhibition assay, plasmin 30 nM. The protocol: Example I provides an illustrative example of assessment of the inhibitory activity. […] The chromogenic substrate S-2251 (D-Val-Leu-Lys-p-nitroanilide; DiaPharma Group Inc., West Chester, Ohio) was then added and residual plasmin amidolytic activity was measured at 405 nm in a Molecular Devices UVₘₐₓ kinetic microplate reader.
as §2
Turning to B1, affinity was put at a Ki of 0.003 µM.

Molecule B2 gave a Ki of 0.029 µM.

With B3, the Ki came to 0.261 µM.

Molecule B4 gave a Ki of 0.118 µM.

Take B5: the affinity corresponds to a Ki of 0.012 µM.

B6: affinity was put at a Ki of 0.059 µM.

Molecule B7 had a Ki of 0.005 µM.

Take B8: the inhibition constant Ki was determined as 0.048 µM.

For the molecule B9, the affinity corresponds to a Ki of 0.079 µM.

In turn, B10 had a Ki of 0.016 µM.

B11 came in with a Ki of 0.00085 µM.

On to B12, for which the affinity corresponds to a Ki of 0.009 µM.

In a further assay the target is T2, human plasmin. The assay can be described thus: chromogenic amidolytic inhibition assay, plasmin; reference wild-type KD1. The protocol:
as §2
B4: the “fold loss of inhibitory activity (against wild-type KD1)” value is about 40 fold.

The target in another assay is T3, porcine trypsin. Put plainly: chromogenic amidolytic inhibition assay, trypsin; reference BPTI. The protocol:
as §2
In the case of B1, the “fold less potent than BPTI” value is 2 fold.
